# Measurements published in paper PMC4210143.
# Molecular target: soluble recombinant NadA_(Δ351-405) (rNadA), Neisseria meningitidis adhesin A lacking the membrane anchor region (Neisseria meningitidis) (UniProt Q8KH85)
# Experiment: SEC-MALS; rNadA 1,7 mg/ml in 10 mM NaH2PO4 150 mM NaCl pH 7.2, heated at 37°C for 30 min, 1, 2 and 4 hrs; TSK Super SW3000, eluted in 0.1 M NaH2PO4, 0,1 M NaHSO4 pH 7.0; MALLS detector Dawn TREOS
substance,measurement,value
"soluble recombinant NadA_(Δ351-405) (rNadA), Neisseria meningitidis adhesin A lacking the membrane anchor region (from UniProt Q8KH85 1-350) (domain or fragment)",percent of the preparation present as the native trimer,95%
same,stoichiometry N,3
